Data reported in the nanobody polyreactivity screen of Harvey et al. (2022).

Assay: yeast display, Sf9 membrane polyspecificity reagent, FACS + sequencing; frameworks hold sequencing errors
Summary of the method: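 Nanobodies came from a synthetic yeast display library in Saccharomyces cerevisiae BJ5465, induced with galactose for 36–48 hours and stained for 1 hour at 4 °C with 10% biotinylated, detergent-solubilized Sf9 membrane reagent. Cells were enriched on streptavidin microbeads and then FACS-sorted, with low and high (top ~1%) gates set on anti-HA fluorescence for expression and streptavidin fluorescence for reagent binding. Each polyreactivity label reflects the gate a clone came from. Genes were amplified by colony PCR, sequenced by MiSeq 2 × 250 and filtered by CDR length.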

Sequence	polyreactivity (PSR sort gate)
QVQLVESGGGLVQAGGSLRLSCAASGFIFQTNVMGGYRQAPGKERELVAAISSGYSTYYADSVKGRFTISRDNAKNTVYLQMNSLKPEDTAVYNCAADVLGTTTTVGGFNYWGQGTQVTVSS	low polyreactivity
QVQLVESGGGLVQAGGSLRLSCAASGFTSSRNAMGWYRQAPGKERELVAAISSGTSTNYADSVKGRFTISRDNAKNTVYLQMNSLKPEDTAVYYCAAGSYSRYLYSLYFDFDYWGQGTQVTVSS	low polyreactivity
QVQLVESGGGLVQAGGSLRLICAASGRTFYWNAMGWYRQAPGKERELVAAISDGGGSTYYADSVKGRFTISRDNAKNTVYLQMNSLKPEDTAVYYCNTPDNQDKPYPGYDYWGQGTQVTVSS	low polyreactivity
QVQLQEIGGCLVQAGDSHRLSCAASGNIFPFTDMGWNRQAQGKERELVAAINAGSTTYYADSVKGRFTISRDNAKITVYLQLISLKPEDTAVYYCAVYYLGSGTFCYWGQGPQVTVSS	high polyreactivity
QVQLVDSGGGLVQAGGSLRLICAASGITFRHYAMGWYRTAPGKERELVAAITRRGGSTRYADSVKGRFTISRDNAKNTVYLQMNSLKPEDTAVYYCNAVYWSEGDWSERRDYWGQGTQVTVSS	high polyreactivity
QVQLVESGGGLVQAGGSLRLSCSASGRIFDTYAMGWYRQAPGKERELVAAIRRTGGSTYYADSVKGRFTISRDNAKNTVYLQMNSLKPEDTAVYYCAAEYTVSYLRMDYWGQGTQVTVSS	low polyreactivity
QVQLVESGGGLVQAVGSLRLSCAASGRTFDEYAMGWYRQAPGKERELVAAISTRGGSTYYADSVKGRFTISRDNAKNTVYLQMNSLKPEDTAVYYCAADYTKSSSPWPGYYWGQGTQVTVSS	high polyreactivity
QVQLVESGGGLVQAGGSLRLSCAASGFTFDYYAMGWYRQAPGKERELVAAISVSDSSTYYADSVKGRFTISRDNAKNTGDLQMNSLKPEDTAVYYCAAEYYVGFTYRYEYWGQGTQVTVSS	low polyreactivity
QVQLVESGGGLVQAGGSLRLSCAASGIIFAYYDMGLYRKAPGKERELVAAISSTGSNTYYADSVKGRFTISRDNAKNTVYLQMNSLKPEDTAVYYCAAGYAYYIGHGDYWGQGTQVTVSS	high polyreactivity
QVQLVESWGGLVQAGGSLHLSCAASGSTFQEYAMGWYRQAPGKERELVASIRWSGGRTYYADSVKGRFTISRDNAKNTVYLQMNSLKPEDTAFYYCAAGQWWYQVRFDYWGQGTQVTVSS	low polyreactivity
QVQLVESGGGLVQAGGSLRLSCAASGRTFVYNAMGWYRQAPGKERELVATITFSGGSTYYADSVKGRFTISRDNAKNTVYLQMNSLKPEDTAVYYCNTQGVHHYYHAPQVRGYDYWGQGTQVTVSS	low polyreactivity
QVQLVESGGGLVQAGGSLRLSCAASGRTFRRYTMGWYRPAPGKERELVAAITTSGGSTYYADSVKGRFTLSRDNAKNTVYLQMNSLKPEDTAVYYCAATRRYSGDYWGQGTQVTVSS	high polyreactivity
QVQLVESGGGLVQAGGSLRLICAASGSTFNGNDRGWYRQAPGKERELVATISDGGRTYYADSVKGRFTISRDNAKITVYLQMNSLKPEDTAVYYCAAPVYVPRAWFYYWGQGTQVTVSS	low polyreactivity
QVQLVESGGGLVQAGGSLRLSCAASGFIFGKNAMGWYRQAPGKERELVAVISWRGSSTYYADSVKGRFTISRDNAKNTVYLQMNSLKPEDTAVYYCAARYPARGTLYYWGQGTQVTVSS	low polyreactivity
QVQLVESGGGLVQAGGSLRLSCAASGFTFLWNAMGWYRQAPGKERELVAAISSSGGRTYYADSVKGRFTISRDNAKNTVYLLMNSLKPEDTAVYYCARVYSSPYNFGYWGQGTQVTVSS	low polyreactivity
QVQLVESGGGLVQAGGSLRLSCAASGSIFVANAMGWYRPAPGKERELVAAISSGGSTYYADSVKGRFTISRDNAKNTVYLQMNSLKPEDTAVYDCAAGQPNLVVGHYYWGQGTQVTVSS	low polyreactivity
QVQLVESGGGLVQAGGSLRLSCAASGITIVNYVMGWYRQAPGKERELVAAISIGGGTYYADSVKGRFTISRDNAKNTVYLQRNSLKPEDTAVYYCNATFGGLSFYIGVYVTGYDYWGQGTQVTVSS	low polyreactivity
QVQLVESGGGIVQAGGSLRLTCAASGITFYKYDMGWYRQAPGKDRELVAAISFRGGNTNYADSVKGRFTISRDNAKNTVYLQMNILKPEDTAVYYCAAYSYTWFYEYGYWGQGTQVTVSS	high polyreactivity
QVQLVESGGGLVQAGGSLRLSCAASGRIFSRYAMGWYRQAPGKERELVAAITRRGGSTYYADSVKGRFTISRDNAKNTVYLQMNSLKPEDTAVYYCAADGQWPWWLLRYDYWGQGTQVTVSS	high polyreactivity
QVQLVESGGGLVQAGGSLRLSCAASGNIFLDYAMGWYRQAPGKERELVAANTSRVDDTYYADSVKGRFTISLDNAKNTVYLQMTSLKPEFTAVDYCAADYSVTLLIGGYYWFYAFDYWGQGTQVTVSS	low polyreactivity
QVQLVESGGGLVQAGGSLRLSCAASGITISPNAMGWYRQAPGKERELVAAIDWSGDRTYYADSVKGRFTISRDNAKNTVYLQINSLKPEDTAVYYCNVVRRSPGDYSYYYWGQGTQVTVSS	low polyreactivity
QVQLVESGGGLVQAGGSLRISCAASGNSFVSNVMGWYREAPGKERELVAAISSGGRTYYADSVKGRFTISRDNAKNTVYLQMNSLKPEDTAVYYCAASYKSKYLGGGEYWGQGTQVTLSS	high polyreactivity

Sequence	polyreactivity (PSR sort gate)
QVQLVESGGGLVQAGCSLRLSCAASGSILWHYAKGWYRQAPGKERELVAFISSSGSTYYADSVKGRFTISRDNAKNTVYLQMNSLKPEDTAVDYCNAYRLYSGYVPYDYWGQCTQVTVSS	high polyreactivity
QVQLVESGGGLVQAGGSLRLSCAASGRTFDFYAMGWYRQAPGKERELVAGITSGDSTHYADSVKGRFTISRDNAKNTVYLQMNSLKPEDTAVYYCAADITWYDYAGSHIVEHDYWGQGTQVTVSS	low polyreactivity
QVQLQESGGGLVQAGGDLRLSCAASGNIFRDYIMGWYREAPGKEREFVAGIDRGANPNYADSVKGRFTISRDNAKNTVYLQMNSLKPEDTAVYYCAVHTAIVADFIYWGQGTQVTVSS	low polyreactivity
QVQLVESGGGLVQAGGSLRLSCAASGSTFDSNDMGWYRQAPGKERELVAGITWSGASTYYADSVKGRFTISRDNAKNTVYLQMNSLKPEDTAVYYCAAGPWGTGHYVQGPVYYYRYDYWGQGTQVTVSS	low polyreactivity
QVQLVESGGGLVQAGGSLRLSCAATGSTYPRNDRGWYRQAPGKERELVAAISRGGSTNYADSVKGRFTISRDNAKNTVYLQMNSLKPEDTAVYFCAAQIFESAYGMDYWGQGTQVTVSS	low polyreactivity
QVQLVESGGGLVQAGGSLRLSCAACGSIFYWNAMVWYRQAPGKERELVAAINSGDSTNYADSVKGRFTISRDNAKNTVYFQMNSLKPEDTAVYYCAASIYAALNGGPGYDYWGLGTQVTVSS	low polyreactivity
QVQLVESGGGLVQAGGILRLSCAASGRTFSRYAMGWYRQAPGKERELVAAITWDGGSTYYADSVKGRFTISRDNAKNSVYLLMNSLKPEDTAVYYFAARYIRNRMNYWGQGTQVTVSS	high polyreactivity
QVQLVESGGGLVQAGGSLRLSCAASGRTFTPNAMGWYRQAPGKERELVASIRRGTSTYYADSVKGRFTISRDNAKNTVYLQMNSLKPEDTAVYYCAARPFVPRVGTYSYYWGQGTQVTVSS	high polyreactivity
QVQLVESGGGLVHAGGSLRLSCAASGSIFSIYAMGWYRQAPGTERELVAAITKSGGSTYYADSVKGRFTISRDNAKNTVYLQMNSLKPEDTAVYYCAAEPQHYVGYYYWGQGNQVTVSS	high polyreactivity
QVQLVESGGGLVQAGGSLRLSCAASGFTFDINTMGWYRQAPGKERELVAAITYSGGSTYYADSVKGRFTISRDKAKNTVYLQMNSLKPEDTAVYYCATTWYFVASWYVAIYDYWGQGTQVTVSS	low polyreactivity
QVQLVESGGGLVQAGGSLRLSCAASGGTFYVYAMGWYRQAPGKERELVAAISTSDGITYYADSVKGRFTISRDNAKNTVYLQMNSLNPEDTAVYYCAAVFFSSFTYAYDYWGQGTLVTVSS	high polyreactivity
QVQLVESGGVLVQAGGSLRLRCAASGRIFNRNAMGWYRQAPGKERELVAAITSCGSTNYADSVKGRFTISRDNAKNTVYLQMNSLKPEDTAVYYCNVYYHFFRLKTTYLRYYYWGQGTQVTVSS	high polyreactivity
QVQLVESGGGLVQAGGSLRLSCAASGSTFGNYAMGWYRQATGKERELVAASRWSGTRTFYADSVKGRFTISRDNAKNTVYLQMNSLKPEDTAVYYCNAVYSQPGYKGGYSWGQGTQVTVSS	high polyreactivity
QVQLVESGGGLVQAGGSLRLSCAASGSTFARNARGWYRQAPGKERELVAAITTRGSSTYYADSVKGRFTISRDNAKNTVYLQMHSLKPEDTAVYYCAADSRRSWYWGGYRQTGMGYWGQGTQVTVSS	high polyreactivity
QVQLVESGGGLVQAGGSLRLSCAASGRTFNVYAMGWYRQAPGKERELVAVITNGGSTNYADSVKGRFTISRDNAKNTVYLQMNSLKPEDTAVYYCAASWGYGALTPDMGYWGQGTQVTVSS	low polyreactivity
QVQLVESGGGLVQAGGSLRLSCAASGRTFYAYAMGLYRQAPGKERELVASIRWSSGSTNYADSVKRRFTISRDYAKITVYLQMNILKAEDTAVYYCAARYYYYGGHRLYWGQGTQLTVSS	high polyreactivity
QVQLVESGGGLVQAGGSLRLSCAASGRTFGYYVMGCYRQAPGKERELVAAISASGGSTYYADSVKGRFTISRDNAKNTVYLQMNSLKPEDTAVYYCNADYLSQPDWYYFYLFDYWGQGTQVTVSS	high polyreactivity
QVQHVESGGGLVQAGGSLRLSCAASGFIFRRYPLGWYRQAPGKERELVASISSGGNTDYADSVKGRFTISRDNAKNTVYLQMKSLNPEDTAVYYCNARVRWYPGYDYWGQGTQVTVSS	high polyreactivity
QVQLVESGGGLVQAGGSLRLSCAASGRIFRWYAMGWYRQAPGKERELVAAITQGGGSTYYADSVKGRFTISRDNAKNTVYLQMNSLKPEDTAVYYCAARGRSVGSAGTSRYGYWGQGTQVTVSS	high polyreactivity
QVQLVESGGGLVQAGGSLRLSCAASGSTITYNAMGWYRQAPGKERELVAAITVSDGSTYYADSVKGRFTISRDNAKNTVYLQMNSLKPEDTAVYYCNKDRGHPFKYDYWGQGTQVTVSS	low polyreactivity
QVQLVESGGGLVQAGGSLRLSCAASGYIFCKYAMGWYRQARGKERELVAGITRGGTTYYADSVKGRFTISRDNAKNTVYLQMNSLKPEVTAVYYCARDLLGVSSSRYNSWGQGTQVTVSS	high polyreactivity
